In patent US20260226189A1 (PHILOGEN S P A, published 2026):
Numbering of substitutions follows the chain as printed.

Tests used:
[1] = molecular target: T1, human CEA (N-terminal domain) recombinant fragment containing a C-terminal 6xHis tag and a N-terminal BirA … (human, site specifically biotinylated using BirA (E. coli biotin ligase) at the BirA target sequence); test: SPR (BIAcore X100), monomeric scFv over biotinylated CEA N-terminal domain on streptavidin chip
T1 construct: Expressed in CHO-S cells and immobilised on a streptavidin chip for all BIAcore runs; also called biotinylated CEA; human CEA N-terminal fragment
T1 chain: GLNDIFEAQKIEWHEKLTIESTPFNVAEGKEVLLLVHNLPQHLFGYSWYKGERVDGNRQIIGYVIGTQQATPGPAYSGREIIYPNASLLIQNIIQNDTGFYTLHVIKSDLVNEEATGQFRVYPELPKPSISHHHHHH

[2] = molecular target: T2, human carcinoembryonic antigen (CEA, CEACAM5) on cells or tumor tissue (human, UniProt P06731 35-685); test: flow cytometry titration on CT26-CEA cells, IgG1, PE anti-human IgG Fc detection; the CT26-wt curve stays near 0
T2 construct: whole, on cells; One entry covers all cell-based and tissue assays; also called human CEA
T2 sequence (looked up): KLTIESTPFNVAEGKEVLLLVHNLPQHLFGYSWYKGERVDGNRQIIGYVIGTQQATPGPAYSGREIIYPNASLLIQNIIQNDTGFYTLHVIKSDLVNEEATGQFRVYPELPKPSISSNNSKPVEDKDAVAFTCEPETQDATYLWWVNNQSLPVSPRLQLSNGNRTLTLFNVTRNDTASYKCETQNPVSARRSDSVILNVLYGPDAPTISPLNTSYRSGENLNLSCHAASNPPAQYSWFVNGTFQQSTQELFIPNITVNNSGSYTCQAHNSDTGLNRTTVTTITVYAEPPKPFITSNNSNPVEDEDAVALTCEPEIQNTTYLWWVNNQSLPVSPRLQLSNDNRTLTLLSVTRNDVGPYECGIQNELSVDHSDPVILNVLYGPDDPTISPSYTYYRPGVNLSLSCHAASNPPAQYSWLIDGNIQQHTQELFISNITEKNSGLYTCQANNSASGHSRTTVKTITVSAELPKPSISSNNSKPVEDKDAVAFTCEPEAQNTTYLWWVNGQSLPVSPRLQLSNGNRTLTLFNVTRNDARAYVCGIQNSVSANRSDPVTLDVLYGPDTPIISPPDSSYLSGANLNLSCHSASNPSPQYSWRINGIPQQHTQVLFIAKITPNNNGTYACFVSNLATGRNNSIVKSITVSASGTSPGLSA

[3] = molecular target: T3, CEACAM6 transiently expressed on CHO cells (UniProt P40199 35-320, limits assumed); test: flow cytometry contour plots (SSC against fluorescence) on CHO cells transiently expressing CEACAM6
T3 construct: whole, on cells
T3 sequence (looked up): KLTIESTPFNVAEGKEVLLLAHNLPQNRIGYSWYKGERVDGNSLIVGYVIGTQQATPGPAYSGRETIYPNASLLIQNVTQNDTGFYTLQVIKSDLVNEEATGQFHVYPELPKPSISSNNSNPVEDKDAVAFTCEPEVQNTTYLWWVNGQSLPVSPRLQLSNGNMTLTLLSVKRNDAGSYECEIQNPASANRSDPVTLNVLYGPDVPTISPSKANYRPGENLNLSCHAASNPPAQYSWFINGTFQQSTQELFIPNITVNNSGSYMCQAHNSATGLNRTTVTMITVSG

[4] = molecular target: T4, CEACAM1 transiently expressed on CHO cells (UniProt P13688 35-526, limits assumed); test: flow cytometry contour plots (SSC against fluorescence) on CHO cells transiently expressing CEACAM1
T4 construct: whole, on cells
T4 sequence (looked up): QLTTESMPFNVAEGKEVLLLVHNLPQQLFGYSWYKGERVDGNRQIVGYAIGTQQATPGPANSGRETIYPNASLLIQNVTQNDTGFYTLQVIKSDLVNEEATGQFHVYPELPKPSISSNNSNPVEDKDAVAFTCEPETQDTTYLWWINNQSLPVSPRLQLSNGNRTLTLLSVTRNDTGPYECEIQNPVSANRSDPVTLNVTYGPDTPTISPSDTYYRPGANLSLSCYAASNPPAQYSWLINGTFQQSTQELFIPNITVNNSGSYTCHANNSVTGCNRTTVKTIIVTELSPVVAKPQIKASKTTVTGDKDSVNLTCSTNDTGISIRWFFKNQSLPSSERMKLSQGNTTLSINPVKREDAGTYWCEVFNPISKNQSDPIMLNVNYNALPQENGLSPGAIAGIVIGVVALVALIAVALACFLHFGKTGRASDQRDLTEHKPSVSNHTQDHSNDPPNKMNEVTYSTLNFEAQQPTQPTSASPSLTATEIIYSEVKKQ

[5] = molecular target: T2, human carcinoembryonic antigen (CEA, …); test: immunofluorescence on LS174T tumor cryosections, FITC-labelled IgG1
[6] = molecular target: T2, human carcinoembryonic antigen (CEA, …); test: cell-based or functional assay

B1: F7 antibody in scFv format (scFv)
scFv: EVQLLESGGGLVQPGGSLRLSCAASGFTFSRTAMSWVRQAPGKGLEWVSAISGSGGSTYYADSVKGRFTISRDNSKNTLYLQMNSLRAEDTAVYYCAKLTYARFDYWGQGTLVTVSSGGGGSGGGGSGGGGEIVLTQSPGTLSLSPGERATLSCRASQSVSFPYLAWYQQKPGQAPRLLIYGASSRATGIPDRFSGSGSGTDFTLTISRLEPEDFAVYYCQQSGRVPWTFGQGTKVEIK
notes: also called F7 scFv
[1]
  Kd: 50 nM

B2: PEA2 antibody in scFv format (scFv)
scFv: B1 scFv with S52D, G53Y, S54D, S57V, F162Q, P163N, Y164H, G182L, S185R, A187H
notes: also called PEA2 scFv
[1]
  Kd: 7.7 nM

B3: F7 antibody in IgG1 format (antibody, V domains shown)
VH: EVQLLESGGGLVQPGGSLRLSCAASGFTFSRTAMSWVRQAPGKGLEWVSAISGSGGSTYYADSVKGRFTISRDNSKNTLYLQMNSLRAEDTAVYYCAKLTYARFDYWGQGTLVTVSS
VL: EIVLTQSPGTLSLSPGERATLSCRASQSVSFPYLAWYQQKPGQAPRLLIYGASSRATGIPDRFSGSGSGTDFTLTISRLEPEDFAVYYCQQSGRVPWTFGQGTKVEIK
notes: also called F7 IgG
[2]
  EC50: 0.77 nM

B4: PEA2 antibody in IgG1 format (antibody, V domains shown)
VH: B3 VH with S52D, G53Y, S54D, S57V
VL: EIVLTQSPGTLSLSPGERATLSCRASQSVSQNHLAWYQQKPGQAPRLLIYLASRRHTGIPDRFSGSGSGTDFTLTISRLEPEDFAVYYCQQSGRVPWTFGQGTKVEIKR
notes: also called PEA2 IgG1; PEA2 (IgG1)
[2]
  EC50: 0.29 nM

B5: PEA2 antibody as used in Example 8 (flow cytometry on transfected CHO cells) (antibody, V domains shown)
VH: B3 VH with S52D, G53Y, S54D, S57V
VL: B3 VL with F31Q, P32N, Y33H, G51L, S54R, A56H
notes: also called antibody PEA2
[3]
  binding result: no binding (tested: 50 nM)
[4]
  binding result: no binding (tested: 50 nM)

B6: anti-hen egg lysozyme antibody KSF in IgG1 format (antibody, V domains shown)
VH: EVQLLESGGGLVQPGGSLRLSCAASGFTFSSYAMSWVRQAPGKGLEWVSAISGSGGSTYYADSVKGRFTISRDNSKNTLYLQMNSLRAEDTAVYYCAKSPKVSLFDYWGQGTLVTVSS
VL: SSELTQDPAVSVALGQTVRITCQGDSLRSYYASWYQQKPGQAPVLVIYGKNNRPSGIPDRFSGSSSGNTASLTITGAQAEDEADYYCNSSPLNRLAVVFGGGTKLTVLG
notes: Negative control; It was conjugated to FITC for the immunofluorescence experiments; also called KSF IgG1; KSF (IgG1)
[5]
  binding result: no binding (tested: 10 ug/mL)

B7: PEA2-anti-CD3 (PUB4) bispecific antibody in scFv-IgG4 KIH format (bispecific antibody)
heavy 1: EVQLVESGGGLVQPGGSLRLSCAASGFTFSTYAMNWVRQAPGKGLEWVGRIRSKYNNYATYYADSVKDRFTISRDDSKNSLYLQMNSLKTEDTAVYYCVRHGNFGNSYVSWFAYWGQGTLVTVSSGGGGSGGGGSGGGGSQAVVTQEPSLTVSPGGTVTLTCRSSTGAVTTSNYANWVQQKPGQAPRGLIGGTNKRAPWTPARFSGSLLGGKAALTITGAQAEDEADYYCALWYSNLWVFGGGTKLTVLGGGGSGGGGSGGGGSEVQLLESGGGLVQPGGSLRLSCAASGFTFSRTAMSWVRQAPGKGLEWVSAIDYDGGVTYYADSVKGRFTISRDNSKNTLYLQMNSLRAEDTAVYYCAKLTYARFDYWGQGTLVTVSSASTKGPSVFPLAPCSRSTSESTAALGCLVKDYFPEPVTVSWNSGALTSGVHTFPAVLQSSGLYSLSSVVTVPSSSLGTKTYTCNVDHKPSNTKVDKRVESKYGPPCPPCPAPEFLGGPSVFLFPPKPKDTLMISRTPEVTCVVVDVSQEDPEVQFNWYVDGVEVHNAKTKPREEQFNSTYRVVSVLTVLHQDWLNGKEYKCKVSNKGLPSSIEKTISKAKGQPREPQVYTLPPCQEEMTKNQVSLWCLVKGFYPSDIAVEWESNGQPENNYKTTPPVLDSDGSFFLYSRLTVDKSRWQEGNVFSCSVMHEALHNHYTQKSLSLSLGK
heavy 2: EVQLLESGGGLVQPGGSLRLSCAASGFTFSRTAMSWVRQAPGKGLEWVSAIDYDGGVTYYADSVKGRFTISRDNSKNTLYLQMNSLRAEDTAVYYCAKLTYARFDYWGQGTLVTVSSASTKGPSVFPLAPCSRSTSESTAALGCLVKDYFPEPVTVSWNSGALTSGVHTFPAVLQSSGLYSLSSVVTVPSSSLGTKTYTCNVDHKPSNTKVDKRVESKYGPPCPPCPAPEFLGGPSVFLFPPKPKDTLMISRTPEVTCVVVDVSQEDPEVQFNWYVDGVEVHNAKTKPREEQFNSTYRVVSVLTVLHQDWLNGKEYKCKVSNKGLPSSIEKTISKAKGQPREPQVCTLPPSQEEMTKNQVSLSCAVKGFYPSDIAVEWESNGQPENNYKTTPPVLDSDGSFFLVSRLTVDKSRWQEGNVFSCSVMHEALHNHYTQKSLSLSLGK
light: EIVLTQSPGTLSLSPGERATLSCRASQSVSQNHLAWYQQKPGQAPRLLIYLASRRHTGIPDRFSGSGSGTDFTLTISRLEPEDFAVYYCQQSGRVPWTFGQGTKVEIKRTVAAPSVFIFPPSDEQLKSGTASVVCLLNNFYPREAKVQWKVDNALQSGNSQESVTEQDSKDSTYSLSSTLTLSKADYEKHKVYACEVTHQGLSSPVTKSFNRGEC
[6]
  EC50, target cell killing (LS174T cells with human PBMCs, 5 days): 140000 nM

B8: PEA2-anti-CD3 (PUB4) bispecific antibody in scDb-scFv with Fc KIH format (bispecific antibody, human IgG4 S228P)
heavy 1: EVQLLESGGGLVQPGGSLRLSCAASGFTFSRTAMSWVRQAPGKGLEWVSAIDYDGGVTYYADSVKGRFTISRDNSKNTLYLQMNSLRAEDTAVYYCAKLTYARFDYWGQGTLVTVSSGGSGGEIVLTQSPGTLSLSPGERATLSCRASQSVSQNHLAWYQQKPGQAPRLLIYLASRRHTGIPDRFSGSGSGTDFTLTISRLEPEDFAVYYCQQSGRVPWTFGQGTKVEIKGGGGSGGGGSGGGGSEVQLLESGGGLVQPGGSLRLSCAASGFTFSRTAMSWVRQAPGKGLEWVSAIDYDGGVTYYADSVKGRFTISRDNSKNTLYLQMNSLRAEDTAVYYCAKLTYARFDYWGQGTLVTVSSGGSGGEIVLTQSPGTLSLSPGERATLSCRASQSVSQNHLAWYQQKPGQAPRLLIYLASRRHTGIPDRFSGSGSGTDFTLTISRLEPEDFAVYYCQQSGRVPWTFGQGTKVEIKGSESKYGPPCPPCPAPEFLGGPSVFLFPPKPKDTLMISRTPEVTCVVVDVSQEDPEVQFNWYVDGVEVHNAKTKPREEQFNSTYRVVSVLTVLHQDWLNGKEYKCKVSNKGLPSSIEKTISKAKGQPREPQVYTLPPCQEEMTKNQVSLWCLVKGFYPSDIAVEWESNGQPENNYKTTPPVLDSDGSFFLYSRLTVDKSRWQEGNVFSCSVMHEALHNHYTQKSLSLSLGK
heavy 2: EVQLVESGGGLVQPGGSLRLSCAASGFTFSTYAMNWVRQAPGKGLEWVGRIRSKYNNYATYYADSVKDRFTISRDDSKNSLYLQMNSLKTEDTAVYYCVRHGNFGNSYVSWFAYWGQGTLVTVSSGGGGSGGGGSGGGGSQAVVTQEPSLTVSPGGTVTLTCRSSTGAVTTSNYANWVQQKPGQAPRGLIGGTNKRAPWTPARFSGSLLGGKAALTITGAQAEDEADYYCALWYSNLWVFGGGTKLTVLGSESKYGPPCPPCPAPEFLGGPSVFLFPPKPKDTLMISRTPEVTCVVVDVSQEDPEVQFNWYVDGVEVHNAKTKPREEQFNSTYRVVSVLTVLHQDWLNGKEYKCKVSNKGLPSSIEKTISKAKGQPREPQVCTLPPSQEEMTKNQVSLSCAVKGFYPSDIAVEWESNGQPENNYKTTPPVLDSDGSFFLVSRLTVDKSRWQEGNVFSCSVMHEALHNHYTQKSLSLSLGK
[6]
  EC50, target cell killing (LS174T cells with human PBMCs, 5 days): 40 PM
  fold potency in target cell killing against the scFvCD3-IgGCEA KIH format: 3.5 fold
